Experimental data from the DeepSol protein solubility set.

Test: soluble on expression in E. coli; label from the status in PepcDB or PDB records

Sequence	soluble on expression in E. coli
MSDNKESKKISIEIDGKDYQALPNQSIIEVADANGIYIPRFCYHKKLSVAANCRMCLVDVEGARRASPACATPVMDGMKVKTRSEEALQMQKDVMEFLLINHPLDCPICDQGGECELQDIAMGYGNTTSEYLESKRTVEDPELGPLVATDMTRCILCTRCVRFGEEIAGVKELGVMGRGDHSAISTYISGEMVDSEISANIIDLCPVGALTSKPFRFKARSWELKQFPTLSAGDALATEINAHIYQNKLVRVVPRENDITGTWIADRDRFEYTGLYSQDRIQQPMIKKTGDWVDLSWEEALDFVKVAIQKTIEKDGADAISAIVSETATSEEMYLTKKLLAAVGSVNIDARVRQYADIPGISAGKGLSCSLEDIRESDFILVFGSNIRKEYPLVNIAIKDAVEKNAAKAVAWNVCDYNFNYDIKQVRLAADNIQYIALSLLKAIFVRANLPYGDLDEILRKVDPAAEVRDVADRIVAAKAPKIIIGQDIVNTSGFETVFSILDVLEKVTSVRGGVLATNVNSVAADRIFSSSKSKFSTYKCLNGRTNTKLLLTVHTELAKDSLYGEQKLRNALENIDIVVSFTAFADKFTKDTADIILPIATHYETSGSFVDLFGNRKEFKQVVKPYAGNKELWRVLRVLGNLLELEGFDYNSIAEVTNDAYATRARVGVNHVTQILNANLDYQKEVAFVASNSMYSTTSLLRRAEPLQKTTDAKRFAGVRISQELADEIGLKGQSGVIKIYNIDNEINPEVVVDPSLQAKNIMLPRALFKDFLSSDNISIKLVEEER	not soluble
MKVMLSLFKRESIKGITMKKSTLLNSELSYLVATLGHTDEITICDAGLPIPDEVTRIDLALTHGVPSFLETVRVILSESQIESVIVAQEFAQVSPVLHEALYRELKAEEQLCGKPIAIQYISHEAFKQRTLQSRAVVRTGECTPYANVIFQAGVVF	not soluble
MTNPTKPIPLNFDKPRRFMPPKHFADLSADERIDALKELGLPKFRANQIARHYYGRLEADPSTMTDLPAAAREKVKDALFPQLMQPVRAVQADDGETQKTLWKLHDGTLLESVLMRYPNRATLCISSQAGCGMACPFCATGQGGLDRNLSTGEIVDQVRAASATMQAEGGRLSNIVFMGMGEPLANYKRVVSAVRQITAPVPEGFGISQRNVTVSTVGLAPAIRKLADEDLSVTLAVSLHTPDDELRNTLVPTNNRWEVAEVLDAARYYADRSGRRVSIEYALIRDVNDQGWRADMLGKKLHKALGPLVHVNLIPLNPTPGSKWDASPMDRQKEFVQRVIAQGVTCTVRDTRGQEIAAACGQLAAEER	not soluble
MKYIINHSNDTAFNIALEEYAFKHLLDEDQIFLLWINKPSIIVGRHQNTIEEINRDYVRENGIEVVRRISGGGAVYHDLNNLNYTIISKEDENKAFDFKSFSTPVINTLAQLGVKAEFTGRNDLEIDGKKFCGNAQAYINGRIMHHGCLLFDVDLSVLANALKVSKDKFESKGVKSVRARVTNIINELPKKITVEKFRDLLLEYMKKEYPEMTEYVFSEEELAEINRIKDTKFGTWDWNYGKSPEFNVRRGIKFTSGKVEVFANVTESKIQDIKIYGDFFGIEDVAAVEDVLRGVKYEREDVLKALKTIDITRYFAGISREEIAEAVVG	not soluble
MSLFTGENWDPYEWAKVFKKSGAKFVVLVAEHHDGFALWESNYTRWCATKIGPKRDIVRELKEAVEGQGLIFGISYHRAEHWWFFDQGMKIESDVKDPRYLDLYGPAQSASLNPRDPPSLDNVQPNDEFLMDWLLRIVEAVEKYRPWLVYFDWWIANPSFQPYLKAFASYYYNRSYKWGIEPVIIYKQGAFGEGTAIPDLAERGTIKNVYPSTWLADTSIDYKSWGYIKDAEYKLPSVILSHLGDVVSKNGVFLLNIGPKADGTIPEEAKRILLDVGDWLNVNGEAIFGSKPWRVYGEGPSGINEGGFFTERKITLGYQDVRYTVKDYYPRQRHIYAILFGKPKEITLRSFMKNLKLIEEAVIVDVSRLDGKGKLEWSLSDEGLKIKIEEVIRAPLVIRVILDYREGHHHHHH	not soluble
MSKLDLGRVDLLSMLGNSSSAGVDTAKGVIPFSTSGATWAVPRLSEDGITSHFLRRRGYVTMTQGGSRDQNAAVRKILSLIIAYDIQTQACFFISNEESMRITMAETMGVKDRPNARTNSWAEVSDSDINRGIAKALKEGNLTLDENQKDGFMKLVHAFVADILAQSGHYKPVTSVTYFSAPIDMESDYLDPFSIAIIRDVLDDSPFSELRYDARAMSELEDRDVPITRFSRVMAQMGNAMVRNIMVLNEAAQRKLRGLAVVGEIVHGRVRAPVRYLNDSFIQTLRSNINFHLLTRTTPERWAQSWIQAFGSLKGWVDAINGIADATTEEEKKKLAMQTSMDLELLSDLTPLIRDAATSVEKFVTFAPLSFYQGLGSVTQIRALDSSTNLAAVIVRYAAKEINLIPAYQSFQVPTVDVGVKKTAIMDQRLSLQLPEFSEDQFFGMLEQRMQNMSDSEVAELVDRIAKGETPFGDVVKQLPGTSTLLVTNGYYMGGLLTNEDKIIPGDASVPALLYMQAASFASSVRFPPGEYPVFHHESSNGDVRLTDQVSADAQLSHSAVETANPLNFLVACNVSVHTPSIAIDIIEPMPDLTRRGTTEYVHKGEIKVAAIPSLPPKSADRKAQVSRETAKFERVLYKARKGGAQVAAPIDLESLFGIAVNLAVPTVKHVYSPDSKTKLALDIIKGLESEGDKAAATRLLMTLARAYTGTYSSLGLRRRDEITGIAAQPSDVAMQEFALQSGVQTLKAVAKHTGIMEVATIEMVEEKVRSLDDNRFYEIAAEVVLRALKGM	not soluble
MRIALFTETFLPKIDGIVTRLCQTVRHLQRNGHQVLVVAPDGGLDHYEGARIYGVSGFPLPLYPELKLALPRPAIGKALAAFEPDLIHVANPAVLGLAGLYYAQKFQLPLVASYHTHLPQYLKYYGLGFLEELLWFLLRWGHNCAQLNLCTSTAMVAELKAHGIRHLDLWQRGVDVELFHPQRQSQEMRHFLSQGHPEAPLLLYVGRLSAEKEIEQIKPILEQIPQARLALVGNGPHREALEKHFAGTPTHFVGYLRGERLAGAFASADVFIFPSRTETLGLVLLEAMAAGCPVVAANSGGIPDIVTDGVNGFLFDPADPTGAITACQRLFDSPDDRETLRQNARQEAERWSWAAATQQLEQYYRSVLPVPQRDVALSHLEHHHHHH	not soluble
MGSDKIHHHHHHMVDADQLRQWGRKVIDTERNALDNLYQYVDSSEFAKACQLILACTGKVIVMGMGKSGHIGNKISATLASTGTPAFFVHPGEASHGDLGVLSENDIVLAISNSGEASEILTLMPVIKRMGLPVIAVTGKPESNMAKHSVVHLCIEVPEEACPLGLAPTSSTTATLVMGDALAVALLQARGFTKDDFALSHPGGSLGRKLLLKVSDVMHKGDDLPLVAEDICITEALYEISKKGLGMTGVVNSQGMLVGIFTDGDLRRVIDAEINLRKTSISEVMTHGCVTVSEGILAAQALKVMDEKEINGLIVTDEQQKPIGALNMLDMVKAGVI	not soluble
MGSDKIHHHHHHMHGREAEDGVRSNPTGRQLRFGAELRKLREQAGLSATDAGQLLGIKQTQVSNMEAGRVGVSADRVRTLACHYECSDKALVEAIAAMTGDRTRGWWEEYREILPVGLLDLAELEHHATRLRTAVTVHIPGLFQTTEYAREIFRQAVPELPQPDVEHRVSFRIKRQAILFRDPPTPHQIIVHEAALRMRFGGSDVTRDQLKYLTAMNEREHISVQVIPFDTGVLPGSGQSIYYAEGPVPQLDTVNLDQSHGPVFLDAGAQLRKYRGLLDRMESAALSPEDSQKFIHTILKAL	not soluble
MFYTTDTNQHGLPHDPFKAIVAPRPIGWIGSKGREGVLNLSPYSFFNAISDRPKLVMFSSSGRKDSLRNVEETGVFTANLVSRHLVDRMNASSAPVAYDVDEFALAGLTAVDGRVVDAPFVREALAVLECRATQIQQLTDIEGKPTDSWMVIGQVMAIHIGETIIRDGRIDMGLARPVARMGYMDYCDGGSDVFQLQRPSAAPSV	soluble
MSLEPDPDYVEPRLEGPQKQAASEIIEDVRKGGFHVSLIDGVTGSGKTEVYFEAVAETLRQGKQVLILLPEIALTAAFLERFQDRFGAKPAEWHSDLSPRMREKVWRQAVTGEIKVVAGARSALFLPFDNLGLIIVDEEHDPAYKQEDRVFYNARDMAVVRARIAEFPVVLVSATPSVESQVNGSSGRYNTIHLHTRFGDAAMPDLHLVDMRRHPPERGGFLSPVLLRGIGKTIEKGEQSLLFLNRRGYAPLTLCRVCGHRFQCPQCSSWLVEHRFRNQLQCHQCGHNEPTPDHCPECGTFDHLVACGPGVERIAEEVEKHFPEARTIVLSSDLMGVKRLRLELEAIVKGEADIVIGTQLVAKGHNFPLMTLVGIVDADLGLANGDPRAAERTFQLLSQVTGRAGRTGLKSHGLLQTYQPQHPVMQAIVSGDASAFYEREIVEREKAVLPPFGRLASIIVSADTRAEAETHARGLRAAAPQVTGIMLLGPAEAPLALIRGRHRFRLLVHGRRNSDMQSFLRTLLASGPKERGSVHVQLDIDPQSFLEGHHHHHH	soluble
MGSDKIHHHHHHPLGSPEAGDISEERQAFLRLTAVYSVMKDFRYTWSMQCFGDVLSNDATYSGSSNDAQTFTLLENYQYQADHTEILNKYRYSYQCINKANLFIRDMEMADDALFSKYDKEQMIGEAKFIRAYTYFELVKTFGGVPCYTGVLDLDHERLGRASVEEIYSVIEQDLNDAVSVLPKKSEVANYESSYAGRITKGAAIAMQTRIYLYEKKYDEVKKAFEKFQNECGGEYSLVAPEDYTWQFSLDGEHCSSSILEVNMYNSSTQSSYNVNNGNRHVLMSMPRNMTIGFGCAQPTQALADAYDAEGDVIRKKTTLLSTEEAIEIETAAKGDVAPVTDDRTGWYNRKLYLAPGQREENRGNNQPTNLRLIRLAEVYLNYAEACYFSGDIANAQKYLNEVRSHVNLAPKNHTGSQLFEDIMNERHLEFGMEGFRFFDVVRVGWGEKVFNGTKKAEFGAKTPFSAGAEVLPIPQTEIDISDGLITN	not soluble
GAMASLVVPNLMGNKDKADRQKVMSDLVALESTLDMYRLDNNRYPTTEQGLRALVSKPTVQPEPRNYRQDGYIRRLPQDPWGGDYQLLNPGQYSDIDIFSPGPDGVPNTEDDIGNWTLGNAQP	soluble
MAHHHHHHMQKHNIKLNQNQDISQLFHDEVPLFDNSITSKDKEVIETLSEIYSIVITLDHVEKAYLKDSIDDTQYTNTVDKLLKQFKVYLNSQNKEEINKHFQSIEAFCDTYNITASNAITRLERGIPITAEHAISTTTSAPSGDNKQSSSSDKK	soluble
MSLKYLVMNAGRLFLSLLKESGVNKIFIVSGTDYASLIEAKVEDSSLPEFEIVPHEITAISTAIGYALGNKLSAVAVHTTPGTANALGGIMSAFTSRIPLLVIAGRSPYTEKGNTASRNLRIHWTQEARDQGELVRQYVKYDFEIRMADQLPAVVSRAIQIMMSEPRGPVYIVLPREVSIQEVNEARRIPMDYYEPAPSPDKINKAKEMLEKSERPLIITWRAGRRKEWFESLRRFADNYNIPVLNYAGEVLNYPSSGPMALDRFDLRNSDLLLVVEAEVPYFPKKIDLDIPIVKIDVDPSYSYIPYYGFRCDLCIQSTPSNFFDYISIRPKSYDEIKELRAKQEEYKKQEIERLKDKKPIHPKYLSYEIGIVASEYNLVIFNEYQFNPRYARLNEFGSYFADLSVGYLGFALGAGVGYKIATNKDVLITTGDGSFIFGVPEAFYYVASKYPTMVVIYDNGGWLASAEAVDEVFPEGLAKSKKYYPGADFDRRFEIGKTVETFHGYYELVEDPWEIKPALIRGLEKMRRENKIAVIQVIVDKVREGHHHHHH	not soluble
MLLKLKCTVNNYAWGPKGNSSMAGSLALDGGHIPNLDKDKPYAEFWVGTHANGPAHVIEKDIALKQLLATSPELQGKHEKGNLSFLFKVLSVLGPLSIQIHPTKEQGKLLHATDPKNYPDDNHKPEIAIALTEFELLSGFRQHSQISEYLKLYSEIQELLTEEEKSQIDSLGSYGESSAQVLKKIFSRIWRTPKEKLQIVVDKLARRIQGHENKTALDEIIVYLFTLYPGDVGVFAPIFLNYFKLQPGEATFLEPNMPHAYLKGDCVECMADSDNTIRAGLTPKYIDVESLVEMLNYDETLLPKYIPNELDDGSLLFTPRGIDEFWVQEVKGPAGSIYQLPYSESCSVLTVLYGTATVTLGDASQVLNRGEVVFIGATHDAERPKINISDDFLAFRAFTPSPRALESLSNKRLIID	not soluble
